Experimental data published in patent US20190263889A1.
Values joined by “and” are separate entries in the source; they are usually repeats but may differ in a detail not shown here. Identical values can stand only once.

Key:
[1] = target: CTLA-4Fc mutant protein M9 (human (murine residues substituted)); assay: ELISA; binder 100 ng/ml on coated target
[2] = target: CTLA-4Fc mutant protein M3 (human (murine residues substituted)); assay: ELISA; binder 100 ng/ml on coated target
[3] = target: CTLA-4Fc mutant protein M4 (human (murine residues substituted)); assay: ELISA; binder 100 ng/ml on coated target
Sequence of CTLA-4Fc mutant protein M4 (human (murine residues substituted)) (chain, as listed by the source mutant): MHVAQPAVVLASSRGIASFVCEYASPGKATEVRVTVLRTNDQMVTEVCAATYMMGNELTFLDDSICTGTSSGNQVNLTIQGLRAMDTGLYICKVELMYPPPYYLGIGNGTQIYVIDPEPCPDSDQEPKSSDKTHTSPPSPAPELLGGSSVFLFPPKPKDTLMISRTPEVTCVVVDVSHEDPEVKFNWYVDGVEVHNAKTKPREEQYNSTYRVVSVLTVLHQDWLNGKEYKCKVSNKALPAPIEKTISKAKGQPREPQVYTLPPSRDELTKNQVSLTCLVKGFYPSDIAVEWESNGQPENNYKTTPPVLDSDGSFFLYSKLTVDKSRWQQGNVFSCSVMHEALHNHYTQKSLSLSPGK

[4] = target: CTLA-4Fc mutant protein M6 (human (murine residues substituted)); assay: ELISA; binder 100 ng/ml on coated target
Sequence of CTLA-4Fc mutant protein M6 (human (murine residues substituted)) (chain, as listed by the source mutant): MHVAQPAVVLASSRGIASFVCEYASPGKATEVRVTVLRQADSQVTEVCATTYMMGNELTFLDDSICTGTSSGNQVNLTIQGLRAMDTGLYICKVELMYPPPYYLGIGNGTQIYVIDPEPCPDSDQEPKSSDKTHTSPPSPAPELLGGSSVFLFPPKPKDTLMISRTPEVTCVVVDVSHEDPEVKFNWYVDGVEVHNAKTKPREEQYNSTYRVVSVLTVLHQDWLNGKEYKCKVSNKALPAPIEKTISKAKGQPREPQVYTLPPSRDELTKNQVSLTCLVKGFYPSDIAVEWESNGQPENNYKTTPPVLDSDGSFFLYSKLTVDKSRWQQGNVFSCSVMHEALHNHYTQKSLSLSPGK

[5] = target: CTLA-4Fc mutant protein M7 (human (murine residues substituted)); assay: ELISA; binder 100 ng/ml on coated target
Sequence of CTLA-4Fc mutant protein M7 (human (murine residues substituted)) (chain, as listed by the source mutant): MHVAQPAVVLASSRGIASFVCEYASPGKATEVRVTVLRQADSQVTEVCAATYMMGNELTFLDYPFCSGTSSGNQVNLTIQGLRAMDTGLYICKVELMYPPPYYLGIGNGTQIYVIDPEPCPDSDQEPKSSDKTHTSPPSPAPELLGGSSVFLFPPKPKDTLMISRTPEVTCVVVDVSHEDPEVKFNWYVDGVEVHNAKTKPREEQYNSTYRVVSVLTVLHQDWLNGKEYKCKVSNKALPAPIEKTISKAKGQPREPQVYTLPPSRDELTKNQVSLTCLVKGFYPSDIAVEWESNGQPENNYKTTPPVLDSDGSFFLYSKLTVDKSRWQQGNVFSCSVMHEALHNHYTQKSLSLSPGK

[6] = target: wild type human CTLA-4Fc fusion protein (abatacept) (human); assay: ELISA; binder 100 ng/ml on coated target
Sequence of wild type human CTLA-4Fc fusion protein (abatacept) (human) (chain, as listed by the source limits assumed): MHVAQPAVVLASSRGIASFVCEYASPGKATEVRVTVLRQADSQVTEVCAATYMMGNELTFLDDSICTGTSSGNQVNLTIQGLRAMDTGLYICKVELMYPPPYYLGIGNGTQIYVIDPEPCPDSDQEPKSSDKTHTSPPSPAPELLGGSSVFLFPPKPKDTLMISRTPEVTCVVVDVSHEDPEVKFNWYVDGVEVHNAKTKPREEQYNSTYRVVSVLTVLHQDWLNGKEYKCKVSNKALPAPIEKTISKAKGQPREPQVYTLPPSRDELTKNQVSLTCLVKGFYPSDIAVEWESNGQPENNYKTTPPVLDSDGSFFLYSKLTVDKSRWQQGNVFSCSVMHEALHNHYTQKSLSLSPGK

[7] = target: CTLA-4Fc mutant protein M8 (human (murine residues substituted)); assay: ELISA; binder 100 ng/ml on coated target
Sequence of CTLA-4Fc mutant protein M8 (human (murine residues substituted)) (chain, as listed by the source mutant): as the sequence (chain, as listed by the source limits assumed) above, with S70F, S71N, G72E, N73S, Q74R counted along it

[8] = target: CTLA-4Fc mutant protein M2 (human (murine residues substituted)); assay: ELISA; binder 100 ng/ml on coated target
Sequence of CTLA-4Fc mutant protein M2 (human (murine residues substituted)) (chain, as listed by the source mutant): as the sequence (chain, as listed by the source limits assumed) above, with R14H, I16L, V20P counted along it

[9] = target: CTLA-4Fc mutant protein M5 (human (murine residues substituted)); assay: ELISA; binder 100 ng/ml on coated target
Sequence of CTLA-4Fc mutant protein M5 (human (murine residues substituted)) (chain, as listed by the source mutant): as the sequence (chain, as listed by the source limits assumed) above, with Y52F, M53T, M54E, G55K, E57T, L58V, T59G counted along it

[10] = target: CTLA-4Fc mutant protein M11 (human (murine residues substituted)); assay: ELISA; binder 100 ng/ml on coated target
Sequence of CTLA-4Fc mutant protein M11 (human (murine residues substituted)) (chain, as listed by the source mutant): as the sequence (chain, as listed by the source limits assumed) above, with Y103F, L104V, I106M counted along it

[11] = target: CTLA-4Fc mutant protein M10 (human (murine residues substituted)); assay: ELISA; binder 100 ng/ml on coated target
Sequence of CTLA-4Fc mutant protein M10 (human (murine residues substituted)) (chain, as listed by the source mutant): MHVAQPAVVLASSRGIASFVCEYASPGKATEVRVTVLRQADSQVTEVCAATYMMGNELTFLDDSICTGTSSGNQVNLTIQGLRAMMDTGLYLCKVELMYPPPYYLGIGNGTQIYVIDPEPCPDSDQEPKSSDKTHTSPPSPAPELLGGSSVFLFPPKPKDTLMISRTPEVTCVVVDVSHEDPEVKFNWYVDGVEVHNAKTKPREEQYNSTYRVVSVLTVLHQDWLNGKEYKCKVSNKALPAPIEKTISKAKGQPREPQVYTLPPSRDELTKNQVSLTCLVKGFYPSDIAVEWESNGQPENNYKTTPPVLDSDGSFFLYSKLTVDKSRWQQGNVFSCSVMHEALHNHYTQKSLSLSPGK

[12] = target: CTLA-4Fc mutant protein M9 (human (murine residues substituted)); assay: ELISA; binder 100 ng/ml on coated target; remark: listed apart in the source
[13] = target: CTLA-4Fc mutant protein M3 (human (murine residues substituted)); assay: ELISA; binder 100 ng/ml on coated target; remark: listed apart in the source
mouse CTLA-4-Fc (mouse) = mouse CTLA-4-Fc (mouse) (UniProt P09793); assay: ELISA; binder 100 ng/ml on coated target
Sequence of mouse CTLA-4-Fc (mouse) (P09793 36-161 limits assumed): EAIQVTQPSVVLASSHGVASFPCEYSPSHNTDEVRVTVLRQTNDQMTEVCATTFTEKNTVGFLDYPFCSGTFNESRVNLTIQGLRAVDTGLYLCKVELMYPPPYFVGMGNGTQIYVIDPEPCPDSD

[14] = target: CTLA-4Fc mutant protein M1 (human (murine residues substituted)); assay: ELISA; binder 100 ng/ml on coated target
Sequence of CTLA-4Fc mutant protein M1 (human (murine residues substituted)) (chain, as listed by the source mutant): as the sequence (chain, as listed by the source limits assumed) above, with M1I, H2Q, A4T, A7S counted along it

[15] = target: CTLA-4Fc mutant protein M4 (human (murine residues substituted)); assay: ELISA; binder 100 ng/ml on coated target; remark: listed apart in the source
[16] = target: CTLA-4Fc mutant protein M6 (human (murine residues substituted)); assay: ELISA; binder 100 ng/ml on coated target; remark: listed apart in the source
[17] = target: CTLA-4Fc mutant protein M7 (human (murine residues substituted)); assay: ELISA; binder 100 ng/ml on coated target; remark: listed apart in the source
[18] = target: wild type human CTLA-4Fc fusion protein (abatacept) (human); assay: ELISA; binder 100 ng/ml on coated target; remark: listed apart in the source
[19] = target: CTLA-4Fc mutant protein M8 (human (murine residues substituted)); assay: ELISA; binder 100 ng/ml on coated target; remark: listed apart in the source
[20] = target: CTLA-4Fc mutant protein M2 (human (murine residues substituted)); assay: ELISA; binder 100 ng/ml on coated target; remark: listed apart in the source
[21] = target: CTLA-4Fc mutant protein M5 (human (murine residues substituted)); assay: ELISA; binder 100 ng/ml on coated target; remark: listed apart in the source
[22] = target: CTLA-4Fc mutant protein M11 (human (murine residues substituted)); assay: ELISA; binder 100 ng/ml on coated target; remark: listed apart in the source
[23] = target: CTLA-4Fc mutant protein M10 (human (murine residues substituted)); assay: ELISA; binder 100 ng/ml on coated target; remark: listed apart in the source
[24] = target: human IgG1-Fc control (human) [IgG part: P01857]; assay: ELISA; binder 100 ng/ml on coated target
[25] = target: human CTLA-4 (form in the blocking assay not stated) (human) (UniProt P16410); assay: blocking of B7-CTLA-4 interaction; format not stated, no data shown
Sequence of human CTLA-4 (form in the blocking assay not stated) (human) (P16410 36-223 limits assumed): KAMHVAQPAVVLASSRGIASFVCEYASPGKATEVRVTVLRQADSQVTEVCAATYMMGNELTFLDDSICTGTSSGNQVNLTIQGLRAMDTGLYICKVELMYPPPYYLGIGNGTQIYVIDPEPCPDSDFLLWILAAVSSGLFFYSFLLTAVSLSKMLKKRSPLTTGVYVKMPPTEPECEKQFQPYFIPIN

[26] = target: CTLA-4Fc mutant protein M9 (human (murine residues substituted)); assay: ELISA; binder 10 ng/ml on coated target
[27] = target: CTLA-4Fc mutant protein M3 (human (murine residues substituted)); assay: ELISA; binder 10 ng/ml on coated target
[28] = target: CTLA-4Fc mutant protein M1 (human (murine residues substituted)); assay: ELISA; binder 10 ng/ml on coated target
[29] = target: CTLA-4Fc mutant protein M4 (human (murine residues substituted)); assay: ELISA; binder 10 ng/ml on coated target
[30] = target: CTLA-4Fc mutant protein M6 (human (murine residues substituted)); assay: ELISA; binder 10 ng/ml on coated target
[31] = target: CTLA-4Fc mutant protein M7 (human (murine residues substituted)); assay: ELISA; binder 10 ng/ml on coated target
[32] = target: wild type human CTLA-4Fc fusion protein (abatacept) (human); assay: ELISA; binder 10 ng/ml on coated target
[33] = target: CTLA-4Fc mutant protein M8 (human (murine residues substituted)); assay: ELISA; binder 10 ng/ml on coated target
[34] = target: CTLA-4Fc mutant protein M2 (human (murine residues substituted)); assay: ELISA; binder 10 ng/ml on coated target
[35] = target: CTLA-4Fc mutant protein M5 (human (murine residues substituted)); assay: ELISA; binder 10 ng/ml on coated target
[36] = target: CTLA-4Fc mutant protein M11 (human (murine residues substituted)); assay: ELISA; binder 10 ng/ml on coated target
[37] = target: CTLA-4Fc mutant protein M10 (human (murine residues substituted)); assay: ELISA; binder 10 ng/ml on coated target
[38] = target: CTLA-4Fc mutant protein M11 (human (murine residues substituted)); assay: ELISA, target coated 1 ug/mL, biotinylated binder
[39] = target: CTLA-4Fc mutant protein M6 (human (murine residues substituted)); assay: ELISA; binder 0 (blank) on coated target
[40] = target: CTLA-4Fc mutant protein M7 (human (murine residues substituted)); assay: ELISA; binder 0 (blank) on coated target
[41] = target: wild type human CTLA-4Fc fusion protein (abatacept) (human); assay: ELISA; binder 0 (blank) on coated target
[42] = target: CTLA-4Fc mutant protein M11 (human (murine residues substituted)); assay: ELISA; binder 0 (blank) on coated target

Sequence of CTLA-4Fc mutant protein M9 (human (murine residues substituted)) (chain, as listed by the source mutant): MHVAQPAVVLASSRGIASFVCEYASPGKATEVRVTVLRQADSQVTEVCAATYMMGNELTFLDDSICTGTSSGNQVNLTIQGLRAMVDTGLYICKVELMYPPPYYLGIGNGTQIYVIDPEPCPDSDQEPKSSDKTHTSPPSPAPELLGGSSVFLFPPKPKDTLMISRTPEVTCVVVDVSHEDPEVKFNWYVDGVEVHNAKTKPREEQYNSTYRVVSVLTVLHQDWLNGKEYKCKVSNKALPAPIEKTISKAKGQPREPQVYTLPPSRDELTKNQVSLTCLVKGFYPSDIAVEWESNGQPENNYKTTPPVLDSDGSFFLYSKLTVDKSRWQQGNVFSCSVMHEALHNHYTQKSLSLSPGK
Sequence of CTLA-4Fc mutant protein M3 (human (murine residues substituted)) (chain, as listed by the source mutant): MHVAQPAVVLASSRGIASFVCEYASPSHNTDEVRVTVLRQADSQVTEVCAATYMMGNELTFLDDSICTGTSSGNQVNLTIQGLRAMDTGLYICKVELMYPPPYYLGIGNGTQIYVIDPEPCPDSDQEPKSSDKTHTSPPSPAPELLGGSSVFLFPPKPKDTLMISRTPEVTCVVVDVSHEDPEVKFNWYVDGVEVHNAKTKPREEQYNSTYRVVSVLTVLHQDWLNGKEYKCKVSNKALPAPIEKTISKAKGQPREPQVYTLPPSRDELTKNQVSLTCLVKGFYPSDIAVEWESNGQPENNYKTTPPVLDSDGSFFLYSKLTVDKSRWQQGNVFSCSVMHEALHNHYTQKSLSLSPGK

OD450 [1]: 0.295 OD450 and 0.304 OD450
OD450 [2]: 2.32 OD450 and 2.35 OD450
OD450 [3]: 2.14 OD450 and 1.41 OD450
OD450 [4]: 2.7 OD450 and 2.77 OD450
OD450 [5]: 2.5 OD450 and 2.48 OD450
OD450 [6]: 3.05 OD450 and 3.02 OD450
OD450 [7]: 2.91 OD450 and 2.84 OD450
OD450 [8]: 1.38 OD450 and 1.16 OD450
OD450 [9]: 2.84 OD450 and 2.99 OD450
OD450 [10]: 0.635 OD450 and 0.759 OD450
OD450 [11]: 0.215 OD450 and 0.216 OD450
OD450 [12]: 0.419 OD450 and 0.346 OD450
OD450 [13]: 2.24 OD450 and 2.54 OD450
OD450 (mouse CTLA-4-Fc (mouse)): 0.303 OD450 and 0.314 OD450
OD450 [14]: 3.19 OD450 and 3.57 OD450
OD450 [15]: 2.23 OD450 and 2.36 OD450
OD450 [16]: 3.03 OD450
OD450 [17]: 2.67 OD450 and 2.88 OD450
OD450 [18]: 3.32 OD450 and 3.46 OD450
OD450 [19]: 3.02 OD450 and 3.16 OD450
OD450 [20]: 1.31 OD450 and 1.37 OD450
OD450 [21]: 3.25 OD450 and 3.32 OD450
OD450 [22]: 0.752 OD450 and 0.746 OD450
OD450 [23]: 0.26 OD450 and 0.272 OD450
OD450 [24]: 0.315 OD450 and 0.326 OD450
fold higher B7 blocking activity than 10D1 [25]: 1000 fold
OD450 [26]: 0.18 OD450 and 0.171 OD450
OD450 [27]: 0.62 OD450 and 0.587 OD450
OD450 [28]: 2.47 OD450 and 2.43 OD450
OD450 [29]: 0.507 OD450 and 0.356 OD450
OD450 [30]: 1.03 OD450 and 0.976 OD450
OD450 [31]: 0.714 OD450 and 0.738 OD450
OD450 [32]: 1.43 OD450 and 1.52 OD450
OD450 [33]: 1.23 OD450 and 1.24 OD450
OD450 [34]: 0.375 OD450 and 0.317 OD450
OD450 [35]: 1.54 OD450 and 1.37 OD450
OD450 [36]: 0.202 OD450 and 0.203 OD450
OD450 [37]: 0.18 OD450 and 0.169 OD450
fold reduction of binding against WT CTLA-4Fc [38]: 100 fold
OD450 [39]: 0.192 OD450 and 0.176 OD450
OD450 [40]: 0.198 OD450 and 0.176 OD450
OD450 [41]: 0.202 OD450 and 0.195 OD450
OD450 [42]: 0.183 OD450 and 0.167 OD450
Substance: chimeric L3D10 anti-human CTLA-4 antibody
